According to patent US20220290162:

Biological target: Bxb1 serine integrase with ssrA degradation tag (Mycobacteriophage Bxb1?) (UniProt Q9B086)
Assay: cell_activity
Settings: attB x attP inversion of P7 promoter, switched cells 42 C vs 37 C; E. coli Nissle

Sequence	activity
GGGTTTGTACCGTACACCACTGAGACCGCGGTGGTTGACCAGACAAACCACGA (double strand) [Bxb1 attP]	> 100 fold
TCGGCCGGCTTGTCGACGACGGCGGTCTCCGTCGTCAGGATCATCCGGGC (double strand) [Bxb1 attB]	> 100 fold
